Reference: patent US20100203582

Target: T1, peptide SAVLQMGFRK, Substrate (7)
T1 chain: SAVLQMGFRK

B1: wild-type severe acute respiratory syndrome-associated coronavirus 3C-like protease (SARS-CoV 3CL^pro) (protein)
chain: SGFRKMAFPSGKVEGCMVQVTCGTTTLNGLWLDDTVYCPRHVICTAEDMLNPNYEDLLIRKSNHSFLVQAGNVQLRVIGHSMQNCLLRLKVDTSNPKTPKYKFVRIQPGQTFSVLACYNGSPSGVYQCAMRPNHTIKGSFLNGSCGSVGFNIDYDCVSFCYMHHMELPTGVHAGTDLEGKFYGPFVDRQTAQAAGTDTTITLNVLAWLYAAVINGDRWFLNRFTTTLNDFNLVAMKYNYEPLTQDHVDILGPLSAQTGIAVLDMCAALKELLQNGMNGRTILGSTILEDEFTPFDVVRQCSGVTFQ
- Km: Km is 76.6±3.5 µM
- kcat: kcat is 1.6±0.2 min^-1
- kcat/Km: kcat/Km=0.02 µM^-1min^-1
